According to patent US20230357429A1 (JANUX THERAPEUTICS, published 2023):
Substitutions are numbered along the chain they refer to. Names may count otherwise. Where no end group is shown, it is not given here.

T1: Human TROP2 ECD (31-274 AA), biotinylated (human, UniProt P09758 31-274, biotinylated (site not stated))
T1 construct: also called tumor-associated calcium signal transducer 2; Human TROP2-biotin
T1 sequence: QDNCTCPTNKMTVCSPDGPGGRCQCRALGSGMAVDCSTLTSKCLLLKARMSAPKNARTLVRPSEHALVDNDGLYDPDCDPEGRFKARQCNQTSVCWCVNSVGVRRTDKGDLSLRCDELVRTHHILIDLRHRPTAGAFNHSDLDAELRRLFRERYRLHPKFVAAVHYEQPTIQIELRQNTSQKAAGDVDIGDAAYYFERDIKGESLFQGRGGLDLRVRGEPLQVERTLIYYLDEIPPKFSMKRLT

T2: Cyno TROP2 Full length (cynomolgus monkey, UniProt P09758 31-323 (human entry))
T2 chain: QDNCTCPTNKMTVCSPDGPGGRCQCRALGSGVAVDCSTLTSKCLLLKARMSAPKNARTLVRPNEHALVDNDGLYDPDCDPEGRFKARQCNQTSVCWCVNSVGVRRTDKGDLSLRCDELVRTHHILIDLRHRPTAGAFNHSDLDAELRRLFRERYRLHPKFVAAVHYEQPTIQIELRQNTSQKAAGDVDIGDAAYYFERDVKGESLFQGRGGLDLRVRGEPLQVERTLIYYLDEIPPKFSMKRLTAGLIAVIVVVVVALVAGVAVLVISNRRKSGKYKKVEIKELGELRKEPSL

T3: Human TROP2 Full length (human, UniProt P09758 31-323)
T3 sequence: T2 chain with V32M, N63S, V200I, V262M, S268T

T4: Human TROP2 ECD (31-274 AA) (human, UniProt P09758 31-274, biotinylated)
T4 construct: also called biotinylated TROP2; TROP2-biotin
T4 sequence: T1 sequence

T5: Peptide-66 (cysteine pairing not given here; also: biotinylated, site not given here)
T5 construct: mask peptide for the CD3 scFv
T5 peptide: GSQCLGPEWEVCPY

T6: Peptide-73 (cysteine pairing not given here; also: biotinylated, site not given here)
T6 construct: mask peptide for the CD3 scFv
T6 peptide: VYCGPEFDESVGCA

T7: Peptide-75 (cysteine pairing not given here; also: biotinylated, site not given here)
T7 construct: mask peptide for the CD3 scFv
T7 peptide: GSACLGPEWEVCPY

T8: Peptide-71 (cysteine pairing not given here; also: biotinylated, site not given here)
T8 construct: mask peptide for the CD3 scFv
T8 peptide: VDCGPDGDESILCY

T9: Peptide-74 (cysteine pairing not given here; also: biotinylated, site not given here)
T9 construct: mask peptide for the CD3 scFv
T9 peptide: ASQCLGPEWEVCPY

T10: Peptide-68 (cysteine pairing not given here; also: biotinylated, site not given here)
T10 construct: mask peptide for the CD3 scFv
T10 peptide: DWCWYSPDNDGLCD

T11: Peptide-67 (cysteine pairing not given here; also: biotinylated, site not given here)
T11 construct: mask peptide for the CD3 scFv
T11 peptide: VYCGPEFDESVGCM

B1: PC-18 (bispecific antibody)
light: GGVDFCALYHWPICYQGGGGSGGLSGRSDAGSPLGLAGSGGSDIQLTQSPSSLSASVGDRVSITCKASQDVSIAVAWYQQKPGKAPKLLIYSASYRYTGVPDRFSGSGSGTDFTLTISSLQPEDFAVYYCQQHYITPLTFGAGTKVEIKRTVAAPSVFIFPPSDEQLKSGTASVVCLLNNFYPREAKVQWKVDNALQSGNSQESVTEQDSKDSTYSLSSTLTLSKADYEKHKVYACEVTHQGLSSPVTKSFNRGEC
heavy: not shown
notes: Masked polypeptide complex: anti-TROP2 Fab F108A, anti-CD3 scFv wt; cleavable linkers
B2: Peptide-70 (peptide)
peptide: YLCGPDGDETLACY
modifications: cysteine pairing not given here; also: biotinylated, site not given here
notes: mask peptide for the CD3 scFv
B3: TCE-7 (anti-CD3 wt, anti-TROP2 F108A) (bispecific antibody)
light: DIQLTQSPSSLSASVGDRVSITCKASQDVSIAVAWYQQKPGKAPKLLIYSASYRYTGVPDRFSGSGSGTDFTLTISSLQPEDFAVYYCQQHYITPLTFGAGTKVEIKRTVAAPSVFIFPPSDEQLKSGTASVVCLLNNFYPREAKVQWKVDNALQSGNSQESVTEQDSKDSTYSLSSTLTLSKADYEKHKVYACEVTHQGLSSPVTKSFNRGEC
heavy: not shown
notes: scFv on the Fab heavy chain; the entry already carries the mutation
B4: PC-2 + MTSP1 (bispecific antibody)
light: B3 light
chain: not shown
modifications: Protease-treated product: both masks and the anti-albumin domain are cut off in the cleavable linkers.
notes: not shown: The few linker residues left at the N-terminus of each chain after the MTSP1 cut
B5: PC-3 + MTSP1 (bispecific antibody)
light: B3 light
chain: not shown
modifications: Protease-treated product: both masks and the anti-albumin domain are cut off in the cleavable linkers.
notes: as for B4
B6: TCE-26 (anti-CD3 scFv W233A; anti-TROP2 HC wt) (bispecific antibody)
light: B3 light
heavy: not shown
notes: scFv on the Fab heavy chain; also called TCE-26 (W233A)
B7: TCE-28 (anti-CD3 scFv S235A; anti-TROP2 wt) (bispecific antibody)
light: B3 light
heavy: not shown
notes: scFv on the Fab heavy chain

Columns and labels:
[1] = target: T1, Human TROP2 ECD (31-274 AA), …; assay: ELISA on immobilized TROP2
Cyno TROP2 Full length = target: T2, Cyno TROP2 Full length; assay: cell-based or functional assay
Human TROP2 Full length = target: T3, Human TROP2 Full length; assay: cell-based or functional assay
[2] = target: T1, Human TROP2 ECD (31-274 AA), …; assay: ELISA on immobilized TROP2; remark: listed apart in the source
[3] = target: T4, Human TROP2 ECD (31-274 AA); assay: ELISA; biotinylated TROP2 on neutravidin plates, PC titrated, HRP secondary
αCD3 scFv = target: T12, αCD3 scFv; assay: competition ELISA; peptide titrated and pre-incubated with a constant concentration of αCD3 scFv; blocked: binding of the scFv to plate-bound biotinylated CD3
T12 construct: also called anti-CD3 scFv; CD3 scFv (SP34.185) wt

[4] = target: T13, TCE-20 (anti-CD3 scFv S110A; anti-TROP2 wt); assay: competition ELISA, TCE on captured CD3
T13 construct: scFv on the Fab heavy chain; also called TCE-20 (S110A)

[5] = target: T14, TCE-10 (anti-CD3 scFv R100A; anti-TROP2 wt); assay: competition ELISA, TCE on captured CD3
T14 construct: scFv on the Fab heavy chain; also called TCE-10 (R100A)

[6] = target: T15, TCE-13 (anti-CD3 scFv N103A; anti-TROP2 wt); assay: competition ELISA, TCE on captured CD3
T15 construct: scFv on the Fab heavy chain; also called TCE-13 (N103A)

[7] = target: T16, TCE-14 (anti-CD3 scFv F104A; anti-TROP2 wt); assay: competition ELISA, TCE on captured CD3
T16 construct: scFv on the Fab heavy chain; also called TCE-14 (F104A)

[8] = target: T17, TCE-36 (anti-CD3 scFv H101A; anti-TROP2 F108A); assay: competition ELISA, TCE on captured CD3
T17 construct: scFv on the Fab heavy chain

[9] = target: T18, TCE-38 (anti-CD3 scFv F240A; anti-TROP2 F108A); assay: competition ELISA, TCE on captured CD3
T18 construct: scFv on the Fab heavy chain

[10] = target: T19, TCE-1 (anti-CD3 scFv wt; anti-TROP2 Fab wt); assay: competition ELISA: peptide titrated and pre-incubated with a constant concentration of TCE-1, binding of TCE-1 to plate-bound biotinylated CD3 detected
T19 construct: anti-CD3 scFv fused to the N-terminus of the anti-TROP2 Fab heavy chain; also called TCE-1 (wt)

[11] = target: B6; assay: competition ELISA, TCE on captured CD3
[12] = target: T20, TCE-22 (anti-CD3 scFv W112A; anti-TROP2 wt); assay: competition ELISA, TCE on captured CD3
T20 construct: scFv on the Fab heavy chain; also called TCE-22 (W112A)

[13] = target: T21, TCE-31 (anti-CD3 scFv W238A; anti-TROP2 wt); assay: competition ELISA, TCE on captured CD3
T21 construct: scFv on the Fab heavy chain; also called TCE-31 (W238A)

[14] = target: T22, TCE-39 (anti-CD3 scFv P41S, A49G, N87S, L150F, T151S, G163R, P175A, K181T, T200V, A202D, L208I, G211N, L217I, …); assay: competition ELISA, TCE on captured CD3
T22 construct: scFv on the Fab heavy chain

[15] = target: T23, TCE-7 (anti-CD3 scFv wt; anti-TROP2 F108A); assay: competition ELISA, TCE on captured CD3
T23 construct: scFv on the Fab heavy chain

[16] = target: T24, TCE-37 (anti-CD3 scFv F104A; anti-TROP2 F108A); assay: competition ELISA, TCE on captured CD3
T24 construct: scFv on the Fab heavy chain

[17] = target: T1, Human TROP2 ECD (31-274 AA), …; assay: ELISA on immobilized TROP2; remark: listed apart in the source
[18] = target: T1, Human TROP2 ECD (31-274 AA), …; assay: ELISA on immobilized TROP2; binder pre-treated with MTSP1
[19] = target: T25, CD3 (biotinylated CD3 antigen) (human, UniProt P07766 23-126, limits assumed, biotinylated (site not stated)); assay: ELISA: biotinylated CD3 captured on neutravidin plates, TCE titrated, HRP secondary antibody
T25 construct: also called CD3ε; human CD3

Peptide-66 = target: T5, Peptide-66; assay: ELISA, TCE on captured biotin-peptide
Peptide-73 = target: T6, Peptide-73; assay: ELISA, TCE on captured biotin-peptide
Peptide-75 = target: T7, Peptide-75; assay: ELISA, TCE on captured biotin-peptide
Peptide-71 = target: T8, Peptide-71; assay: ELISA, TCE on captured biotin-peptide
Peptide-74 = target: T9, Peptide-74; assay: ELISA, TCE on captured biotin-peptide
Peptide-68 = target: T10, Peptide-68; assay: ELISA, TCE on captured biotin-peptide
Peptide-67 = target: T11, Peptide-67; assay: ELISA, TCE on captured biotin-peptide
Peptide-70 = target: B2; assay: ELISA, TCE on captured biotin-peptide

B1
EC50 [1]: 206 nM
CyTROP2 HEK293 EC50 (pM) (Cyno TROP2 Full length): 8250 pM
H292 Cytotoxicity EC50 (pM) (Human TROP2 Full length): > 100000 pM
HCT116 Cytotoxicity EC50 (pM) (Human TROP2 Full length): > 100000 pM
EC50 [2]: 301 nM
EC50 [3]: 957 nM

VYCGPEFDESVGCM (also called CD3 scFv peptide mask) [Peptide-67]
IC50 (αCD3 scFv): 50 nM

YLCGPDGDETLACY (also called CD3 scFv peptide mask)
IC50 (αCD3 scFv): 10 nM

B2
IC50 [4]: 370 nM
IC50 [5]: 240 nM
IC50 [6]: 2110 nM
IC50 [7]: 180 nM
IC50 [8]: 80 nM
IC50 [9]: 140 nM
IC50 (read off the curve) [10]: ~10 nM
IC50 [11]: 5000 nM
IC50 [12]: 470 nM
IC50 [13]: 43500 nM

YLCGPDADETLACY (cysteine pairing not given here; also: biotinylated, site not given here, mask peptide for the CD3 scFv) [Peptide-76]
IC50 [14]: 2790 nM
IC50 [15]: 17500 nM
IC50 [16]: 950 nM

B3
EC50 [1]: 0.18 nM
EC50 [2]: 0.36 nM
EC50 [17]: 1.41 nM

B4
EC50 [18]: 0.45 nM

B5
EC50 [18]: 0.42 nM

B6
EC50 [19]: 1.81 nM
EC50 (Peptide-66): 6.28 nM
EC50 (Peptide-73): 6.63 nM
EC50 (Peptide-75): 6.26 nM
EC50 (Peptide-71): 4.69 nM
EC50 (Peptide-74): 5.47 nM
EC50 (Peptide-68): 2.68 nM
EC50 (Peptide-67): 6.46 nM
EC50 (Peptide-70): 0.95 nM

B7
EC50 [19]: 0.158 nM
